The results in this text go back to patent publication US20140087995A1 (published 2014).

Numbered stars: 1 amine (or outer) side, 2 acyl side, 3 side chain; on linkers, the order of the positions; unused ones are H or OH. Bridge positions count the residues as written; N and C are the ends. Side chains are listed from the residue outwards. Ends that are not written are not given here. * marks the point of attachment. C20 diacid = O=C(O)CCCCCCCCCCCCCCCCCCC(=O)*; γGlu = O=C(O)[C@H](CCC(=O)[*:2])N[*:1]; AEEA = NCCOCCOCC(=O)O

Experiment [1] has as its target T1, human calcitonin receptor (human, UniProt P30988 25-474).
T1 construct: whole, on cells; Assayed as cell membranes of BHK tk'ts 13 cells stably transfected with the human calcitonin receptor (Assay VII); also called hCTR; hCT
T1 sequence (looked up): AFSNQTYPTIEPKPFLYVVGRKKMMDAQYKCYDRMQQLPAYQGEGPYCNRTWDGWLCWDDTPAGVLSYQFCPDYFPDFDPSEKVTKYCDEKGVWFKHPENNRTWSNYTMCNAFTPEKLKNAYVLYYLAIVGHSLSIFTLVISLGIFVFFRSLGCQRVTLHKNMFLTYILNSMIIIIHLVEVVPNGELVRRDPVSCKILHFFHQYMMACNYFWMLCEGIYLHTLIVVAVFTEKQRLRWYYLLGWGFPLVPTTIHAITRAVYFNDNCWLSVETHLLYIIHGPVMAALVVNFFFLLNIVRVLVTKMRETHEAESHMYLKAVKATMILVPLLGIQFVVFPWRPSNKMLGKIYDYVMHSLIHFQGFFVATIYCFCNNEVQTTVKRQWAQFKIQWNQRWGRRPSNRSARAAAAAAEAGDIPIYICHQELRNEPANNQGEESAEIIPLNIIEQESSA
Description: SPA competition vs 125I-calcitonin, membranes of BHK cells with human calcitonin receptor (Assay VII). In outline: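 BHK hCTR membranes 35 ng/μL + SPA beads 0.05 mg/well; buffer 50 mM Hepes pH 7.4, 1 mM CaCl2, 5 mM MgCl₂, 0.1% OA, 0.02% Tween20. 120 min, 25° C., shaking. Scintillation count; IC50 by one-site binding competition.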

The target in experiment [2] is T1, human calcitonin receptor. The experiment in a line: IC50 at hCTR divided by IC50 at hAmylin-R (SPA competition assays V and VII). The method, then: The resulting pellet was resuspended, homogenized and centrifuged (20.000 rpm, 15 min) in a buffer containing 20 mM Na-HEPES and 0.1 mM EDTA (pH 7.4, buffer 2). The resulting pellet was resuspended in buffer 2 and protein concentration was measured (BCA protein Assay, Pierce). The homogenate was kept cold during the whole procedure. The membranes were kept at −80° C. until use. The assay was performed in a 384 well Optiplate (PerkinElmer) in a total volume of 40 ul. Membranes were mixed with SPA beads. Final concentration of membranes 35 ng/μL final and SPA beads was 0.05 mg/well. Test-compounds were dissolved in DMSO and further diluted in assay buffer (50 mM Hepes, pH 7.4, 1 mM CaCl2, 5 mM MgCl₂, 0.1% OA and 0.02% Tween20). […] The final mixture was incubated with shaking at 400 rpm for 120 min at 25° C. prior to centrifugation (1500 rpm, 10 min). Samples were analyzed on TopCounter™ (Packard). The IC₅₀ was calculated using (one site binding competition analysis) GraphPad Prism5 as a measure of receptor affinity.
Membranes were prepared in the following way; the cells were rinsed with PBS and incubated with Versene for approximately 5 min before harvesting. The cells were flushed with PBS and the cell-suspension was centrifuged for 5 min at 1000 rpm. Cells were homogenized (Ultrathurrax) in a buffer containing 20 mM Na-HEPES and 10 mM EDTA (pH 7.4) and centrifuged at 20.000 rpm for 15 min. The resulting pellet was resuspended, homogenized and centrifuged (20.000 rpm, 15 min) in a buffer containing 20 mM Na-HEPES and 0.1 mM EDTA (pH 7.4, buffer 2). The resulting pellet was resuspended in buffer 2 and protein concentration was measured (BCA protein Assay, Pierce). The homogenate was kept cold during the whole procedure. The membranes were kept at −80° C. until use. Assay was performed in a 384 well Optiplate (PerkinElmer) in a total volume of 40 ul. Membranes were mixed with SPA beads.

For orientation: IC50 means the concentration at which inhibition is half-maximal.

B1: N^ε1-[2-[2-[2-[[(4S)-4-carboxy-4-(19-carboxynonadecanoylamino)butanoyl]amino]ethoxy]ethoxy]acetyl]-[Arg14,Arg17,Pro21,Pro27]-h-amylin (peptide)
peptide: K([AEEA-γGlu-C20 diacid])CNTATCATQRLARFLRHSSPNFGAIPSSTNVGSNTY-NH2
modifications: disulfide 2-7; N-terminus assumed
SMILES: CC[C@H](C)[C@H](NC(=O)[C@H](C)NC(=O)CNC(=O)[C@H](Cc1ccccc1)NC(=O)[C@H](CC(N)=O)NC(=O)[C@@H]1CCCN1C(=O)[C@H](CO)NC(=O)[C@H](CO)NC(=O)[C@H](Cc1c[nH]cn1)NC(=O)[C@H](CCCNC(=N)N)NC(=O)[C@H](CC(C)C)NC(=O)[C@H](Cc1ccccc1)NC(=O)[C@H](CCCNC(=N)N)NC(=O)[C@H](C)NC(=O)[C@H](CC(C)C)NC(=O)[C@H](CCCNC(=N)N)NC(=O)[C@H](CCC(N)=O)NC(=O)[C@@H](NC(=O)[C@H](C)NC(=O)[C@@H]1CSSC[C@H](NC(=O)[C@@H](N)CCCCNC(=O)COCCOCCNC(=O)CC[C@H](NC(=O)CCCCCCCCCCCCCCCCCCC(=O)O)C(=O)O)C(=O)N[C@@H](CC(N)=O)C(=O)N[C@@H]([C@@H](C)O)C(=O)N[C@@H](C)C(=O)N[C@@H]([C@@H](C)O)C(=O)N1)[C@@H](C)O)C(=O)N1CCC[C@H]1C(=O)N[C@@H](CO)C(=O)N[C@@H](CO)C(=O)N[C@H](C(=O)N[C@@H](CC(N)=O)C(=O)N[C@H](C(=O)NCC(=O)N[C@@H](CO)C(=O)N[C@@H](CC(N)=O)C(=O)N[C@H](C(=O)N[C@@H](Cc1ccc(O)cc1)C(N)=O)[C@@H](C)O)C(C)C)[C@@H](C)O
notes: also called compound 82
Consider B1, for which the IC50 in experiment [1] is 88.8 nM. The “Ratio hCT/hAmylin binding” value in experiment [2] came out at 140.

B2: N^ε1-[2-[2-[2-[[(4S)-4-carboxy-4-(19-carboxynonadecanoylamino)butanoyl]amino]ethoxy]ethoxy]acetyl]-[Arg17,Pro21,Pro27,Arg34]-h-amylin (peptide)
peptide: K([AEEA-γGlu-C20 diacid])CNTATCATQRLANFLRHSSPNFGAIPSSTNVGRNTY-NH2
modifications: disulfide 2-7; N-terminus assumed
SMILES: CC[C@H](C)[C@H](NC(=O)[C@H](C)NC(=O)CNC(=O)[C@H](Cc1ccccc1)NC(=O)[C@H](CC(N)=O)NC(=O)[C@@H]1CCCN1C(=O)[C@H](CO)NC(=O)[C@H](CO)NC(=O)[C@H](Cc1c[nH]cn1)NC(=O)[C@H](CCCNC(=N)N)NC(=O)[C@H](CC(C)C)NC(=O)[C@H](Cc1ccccc1)NC(=O)[C@H](CC(N)=O)NC(=O)[C@H](C)NC(=O)[C@H](CC(C)C)NC(=O)[C@H](CCCNC(=N)N)NC(=O)[C@H](CCC(N)=O)NC(=O)[C@@H](NC(=O)[C@H](C)NC(=O)[C@@H]1CSSC[C@H](NC(=O)[C@@H](N)CCCCNC(=O)COCCOCCNC(=O)CC[C@H](NC(=O)CCCCCCCCCCCCCCCCCCC(=O)O)C(=O)O)C(=O)N[C@@H](CC(N)=O)C(=O)N[C@@H]([C@@H](C)O)C(=O)N[C@@H](C)C(=O)N[C@@H]([C@@H](C)O)C(=O)N1)[C@@H](C)O)C(=O)N1CCC[C@H]1C(=O)N[C@@H](CO)C(=O)N[C@@H](CO)C(=O)N[C@H](C(=O)N[C@@H](CC(N)=O)C(=O)N[C@H](C(=O)NCC(=O)N[C@@H](CCCNC(=N)N)C(=O)N[C@@H](CC(N)=O)C(=O)N[C@H](C(=O)N[C@@H](Cc1ccc(O)cc1)C(N)=O)[C@@H](C)O)C(C)C)[C@@H](C)O
notes: also called compound 78
On to B2, for which the half-inhibitory concentration (IC50) in experiment [1] amounted to 36.5 nM. In experiment [2], the “Ratio hCT/hAmylin binding” value was 60.7.

B3: N^ε1-[2-[2-[2-[[(4S)-4-carboxy-4-(19-carboxynonadecanoylamino)butanoyl]amino]ethoxy]ethoxy]acetyl]-[Arg17,Pro21,Pro27,Pro28,Pro34]-h-amylin (peptide)
peptide: K([AEEA-γGlu-C20 diacid])CNTATCATQRLANFLRHSSPNFGAIPPSTNVGPNTY-NH2
modifications: disulfide 2-7; N-terminus assumed
SMILES: CC[C@H](C)[C@H](NC(=O)[C@H](C)NC(=O)CNC(=O)[C@H](Cc1ccccc1)NC(=O)[C@H](CC(N)=O)NC(=O)[C@@H]1CCCN1C(=O)[C@H](CO)NC(=O)[C@H](CO)NC(=O)[C@H](Cc1c[nH]cn1)NC(=O)[C@H](CCCNC(=N)N)NC(=O)[C@H](CC(C)C)NC(=O)[C@H](Cc1ccccc1)NC(=O)[C@H](CC(N)=O)NC(=O)[C@H](C)NC(=O)[C@H](CC(C)C)NC(=O)[C@H](CCCNC(=N)N)NC(=O)[C@H](CCC(N)=O)NC(=O)[C@@H](NC(=O)[C@H](C)NC(=O)[C@@H]1CSSC[C@H](NC(=O)[C@@H](N)CCCCNC(=O)COCCOCCNC(=O)CC[C@H](NC(=O)CCCCCCCCCCCCCCCCCCC(=O)O)C(=O)O)C(=O)N[C@@H](CC(N)=O)C(=O)N[C@@H]([C@@H](C)O)C(=O)N[C@@H](C)C(=O)N[C@@H]([C@@H](C)O)C(=O)N1)[C@@H](C)O)C(=O)N1CCC[C@H]1C(=O)N1CCC[C@H]1C(=O)N[C@@H](CO)C(=O)N[C@H](C(=O)N[C@@H](CC(N)=O)C(=O)N[C@H](C(=O)NCC(=O)N1CCC[C@H]1C(=O)N[C@@H](CC(N)=O)C(=O)N[C@H](C(=O)N[C@@H](Cc1ccc(O)cc1)C(N)=O)[C@@H](C)O)C(C)C)[C@@H](C)O
notes: also called compound 55
With B3, the IC50 in experiment [1] was 2.17 nM. Further, the “Ratio hCT/hAmylin binding” value in experiment [2] was found to be 51.8.

B4: N^ε1-[2-[2-[2-[[(4S)-4-carboxy-4-(19-carboxynonadecanoylamino)butanoyl]amino]ethoxy]ethoxy]acetyl]-[Arg17,Pro21,Pro27,His34]-h-amylin (peptide)
peptide: K([AEEA-γGlu-C20 diacid])CNTATCATQRLANFLRHSSPNFGAIPSSTNVGHNTY-NH2
modifications: disulfide 2-7; N-terminus assumed
SMILES: CC[C@H](C)[C@H](NC(=O)[C@H](C)NC(=O)CNC(=O)[C@H](Cc1ccccc1)NC(=O)[C@H](CC(N)=O)NC(=O)[C@@H]1CCCN1C(=O)[C@H](CO)NC(=O)[C@H](CO)NC(=O)[C@H](Cc1c[nH]cn1)NC(=O)[C@H](CCCNC(=N)N)NC(=O)[C@H](CC(C)C)NC(=O)[C@H](Cc1ccccc1)NC(=O)[C@H](CC(N)=O)NC(=O)[C@H](C)NC(=O)[C@H](CC(C)C)NC(=O)[C@H](CCCNC(=N)N)NC(=O)[C@H](CCC(N)=O)NC(=O)[C@@H](NC(=O)[C@H](C)NC(=O)[C@@H]1CSSC[C@H](NC(=O)[C@@H](N)CCCCNC(=O)COCCOCCNC(=O)CC[C@H](NC(=O)CCCCCCCCCCCCCCCCCCC(=O)O)C(=O)O)C(=O)N[C@@H](CC(N)=O)C(=O)N[C@@H]([C@@H](C)O)C(=O)N[C@@H](C)C(=O)N[C@@H]([C@@H](C)O)C(=O)N1)[C@@H](C)O)C(=O)N1CCC[C@H]1C(=O)N[C@@H](CO)C(=O)N[C@@H](CO)C(=O)N[C@H](C(=O)N[C@@H](CC(N)=O)C(=O)N[C@H](C(=O)NCC(=O)N[C@@H](Cc1c[nH]cn1)C(=O)N[C@@H](CC(N)=O)C(=O)N[C@H](C(=O)N[C@@H](Cc1ccc(O)cc1)C(N)=O)[C@@H](C)O)C(C)C)[C@@H](C)O
notes: also called compound 76
Turning to B4, in experiment [1], the IC50 turned out to be 17.2 nM. Moreover, in experiment [2], the “Ratio hCT/hAmylin binding” value worked out at 80.

Take K([AEEA-γGlu-C20 diacid])CNTATCATQRLANFLRHSSPNFGAIPPSTPVGSNTY-NH2 (disulfide 2-7, also called compound 53): the IC50 in experiment [1] amounted to 5.38 nM. In experiment [2], the “Ratio hCT/hAmylin binding” value was 104.
